From paper PMC4228062

Biological target: recombinant galectin-7 R74S (human)
Assay: native gel or EMSA; recombinant gal-7 (wild type or R74S) on a native gel, detected by immunoblot; monomeric and dimeric forms

stoichiometry N: 2
Substance: recombinant galectin-7 R74S (natural protein)
